Reference: the Immune Epitope Database (IEDB)

Assays:
Assay in all cases: IEDB peptide-MHC binding, purified MHC/competitive/radioactivity; ≥ and ≤ were set here for values at or beyond the usual limits of such assays
HLA-A*02:03 = molecular target: HLA-A*02:03
HLA-A*02:02 = molecular target: HLA-A*02:02
HLA-A*02:06 = molecular target: HLA-A*02:06
HLA-A*02:01 = molecular target: HLA-A*02:01
HLA-A*68:02 = molecular target: HLA-A*68:02
[1] = source organism: Vaccinia virus WR
[2] = source organism: Mammarenavirus brazilense
[3] = source organism: Hepacivirus hominis
[4] = source organism: Mammarenavirus lassaense
[5] = source organism: Influenza A virus
[6] = source organism: Mammarenavirus machupoense

| Sequence | IC50 (HLA-A*02:03; [1]) | IC50 (HLA-A*02:02; [1]) | IC50 (HLA-A*02:06; [1]) | IC50 (HLA-A*02:01; [1]) | IC50 (HLA-A*68:02; [1]) | further results |
| --- | --- | --- | --- | --- | --- | --- |
| MVTDKTAYI | 2 nM | 17 nM | 25 nM | 227 nM | 3.2 nM | – |
| ALKAYFTAKI | 77 nM | 194 nM | 2780 nM | 1600 nM | 4110 nM | – |
| GTSAAAYFV | – | – | – | – | – | IC50 (HLA-A*02:03; source organism: SARS-CoV1): 202 nM; IC50 (HLA-A*02:02; source organism: SARS-CoV1): 35 nM; IC50 (HLA-A*02:06; source organism: SARS-CoV1): 91 nM; IC50 (HLA-A*02:01; source organism: SARS-CoV1): 176 nM; IC50 (HLA-A*68:02; source organism: SARS-CoV1): 14 nM |
| TSLGLLYTV | – | – | – | – | – | IC50 (HLA-A*02:03; [2]): 405 nM; IC50 (HLA-A*02:02; [2]): 934 nM; IC50 (HLA-A*02:06; [2]): 4.2 nM; IC50 (HLA-A*02:01; [2]): 115 nM; IC50 (HLA-A*68:02; [2]): 13 nM |
| MAAAKTPVI | 209 nM | 259 nM | 672 nM | 1370 nM | 16 nM | – |
| VLVGGVLAAL | – | – | – | – | – | IC50 (HLA-A*02:03; [3]): 5 nM; IC50 (HLA-A*02:02; [3]): 11 nM; IC50 (HLA-A*02:06; [3]): 141 nM; IC50 (HLA-A*02:01; [3]): 60 nM; IC50 (HLA-A*68:02; [3]): 150 nM |
| NTVGMSIVCI | 1540 nM | 3020 nM | 1210 nM | 3260 nM | 198 nM | – |
| SLSNLDFRL | 1760 nM | 1310 nM | 1380 nM | 2880 nM | 23 nM | – |
| GLSSGFYFEI | 782 nM | 48 nM | 1740 nM | 176 nM | 1720 nM | – |
| YLYNKYSFKL | 0.035 nM | 0.11 nM | 0.14 nM | 0.078 nM | 4.8 nM | – |
| RVSENTGMGM | 89 nM | 839 nM | 146 nM | 766 nM | 66 nM | – |
| RLQMAGVEV | 531 nM | 326 nM | 4110 nM | 1450 nM | 2510 nM | – |
| IIFWFSLEI | – | – | – | – | – | IC50 (HLA-A*02:03; source organism: SARS-CoV1): 87 nM; IC50 (HLA-A*02:02; source organism: SARS-CoV1): 1.8 nM; IC50 (HLA-A*02:06; source organism: SARS-CoV1): 4.6 nM; IC50 (HLA-A*02:01; source organism: SARS-CoV1): 9 nM; IC50 (HLA-A*68:02; source organism: SARS-CoV1): 520 nM |
| NLLLLFVTI | – | – | – | – | – | IC50 (HLA-A*02:03; source organism: SARS-CoV1): 1600 nM; IC50 (HLA-A*02:02; source organism: SARS-CoV1): 436 nM; IC50 (HLA-A*02:06; source organism: SARS-CoV1): 456 nM; IC50 (HLA-A*02:01; source organism: SARS-CoV1): 201 nM; IC50 (HLA-A*68:02; source organism: SARS-CoV1): 755 nM |
| SISGVLWTV | – | – | – | – | – | IC50 (HLA-A*02:03; [3]): 18 nM; IC50 (HLA-A*02:02; [3]): 8.8 nM; IC50 (HLA-A*02:06; [3]): 53 nM; IC50 (HLA-A*02:01; [3]): 11 nM; IC50 (HLA-A*68:02; [3]): 5.5 nM |
| FSTSFYLISI | – | – | – | – | – | IC50 (HLA-A*02:03; [4]): 53 nM; IC50 (HLA-A*02:02; [4]): 2.1 nM; IC50 (HLA-A*02:06; [4]): 9.2 nM; IC50 (HLA-A*02:01; [4]): 32 nM; IC50 (HLA-A*68:02; [4]): 1.8 nM |
| WSYNAELLVA | – | – | – | – | – | IC50 (HLA-A*02:03; [5]): 14 nM; IC50 (HLA-A*02:02; [5]): 242 nM; IC50 (HLA-A*02:06; [5]): 15 nM; IC50 (HLA-A*02:01; [5]): 256 nM; IC50 (HLA-A*68:02; [5]): 1620 nM |

| Sequence | IC50 (HLA-A*02:03; [1]) | IC50 (HLA-A*02:02; [1]) | IC50 (HLA-A*02:06; [1]) | IC50 (HLA-A*02:01; [1]) | IC50 (HLA-A*68:02; [1]) | further results |
| --- | --- | --- | --- | --- | --- | --- |
| YASLTTIGT | 144 nM | 409 nM | 161 nM | 868 nM | 52 nM | – |
| KLYGYASLTT | 0.26 nM | 1.9 nM | 34 nM | 19 nM | 1740 nM | – |
| ELAYYNSCM | 136 nM | 129 nM | 3580 nM | 4370 nM | 278 nM | – |
| NTIAVITETI | 56 nM | 50 nM | 784 nM | 108 nM | 2.1 nM | – |
| ILATLNTLI | 0.23 nM | 0.41 nM | 40 nM | 15 nM | 2310 nM | – |
| FIMRNFLRSI | 0.12 nM | 28 nM | 0.45 nM | 0.47 nM | 131 nM | – |
| MMVILPDKI | 16 nM | 69 nM | 909 nM | 161 nM | 1630 nM | – |
| YNAELLVLL | – | – | – | – | – | IC50 (HLA-A*02:03; [5]): 1790 nM; IC50 (HLA-A*02:02; [5]): 118 nM; IC50 (HLA-A*02:06; [5]): 474 nM; IC50 (HLA-A*02:01; [5]): 609 nM; IC50 (HLA-A*68:02; [5]): 44 nM |
| LIVAALVFL | – | – | – | – | – | IC50 (HLA-A*02:03; source organism: SARS-CoV1): 136 nM; IC50 (HLA-A*02:02; source organism: SARS-CoV1): 9.4 nM; IC50 (HLA-A*02:06; source organism: SARS-CoV1): 11 nM; IC50 (HLA-A*02:01; source organism: SARS-CoV1): 18 nM; IC50 (HLA-A*68:02; source organism: SARS-CoV1): 302 nM |
| FVVFLLVTL | – | – | – | – | – | IC50 (HLA-A*02:03; source organism: SARS-CoV1): 1640 nM; IC50 (HLA-A*02:02; source organism: SARS-CoV1): 217 nM; IC50 (HLA-A*02:06; source organism: SARS-CoV1): 38 nM; IC50 (HLA-A*02:01; source organism: SARS-CoV1): 839 nM; IC50 (HLA-A*68:02; source organism: SARS-CoV1): 120 nM |
| SMYVIPDELI | 114 nM | 31 nM | 492 nM | 380 nM | 1740 nM | – |
| MLTNAISSRV | 0.11 nM | 53 nM | 224 nM | 208 nM | 101 nM | – |
| PMSRLFMDEI | 726 nM | 1930 nM | 4370 nM | 4020 nM | 1360 nM | – |
| YIWKSYVHI | – | – | – | – | – | IC50 (HLA-A*02:03; source organism: SARS-CoV1): 13 nM; IC50 (HLA-A*02:02; source organism: SARS-CoV1): 86 nM; IC50 (HLA-A*02:06; source organism: SARS-CoV1): 8.9 nM; IC50 (HLA-A*02:01; source organism: SARS-CoV1): 24 nM; IC50 (HLA-A*68:02; source organism: SARS-CoV1): 104 nM |
| ALNIALVAV | – | – | – | – | – | IC50 (HLA-A*02:03; [6]): 4.5 nM; IC50 (HLA-A*02:02; [6]): 15 nM; IC50 (HLA-A*02:06; [6]): 371 nM; IC50 (HLA-A*02:01; [6]): 79 nM; IC50 (HLA-A*68:02; [6]): 3340 nM |
| SQFSYKELYV | 27 nM | 14 nM | 71 nM | 121 nM | 634 nM | – |
| DINESMSQMV | 488 nM | 312 nM | 4150 nM | 158 nM | 2070 nM | – |
